Substrate in series [1]: CC(=O)C(=O)O
The experiment in a line: steady-state kinetics of overall transamination, Michaelis-Menten fit. In kind it is biochemical, Geoglobus acetivorans. As to conditions: 5 mM L-Leu co-substrate; extrapolated. An excerpt:
steady-state kinetics of overall transamination, Michaelis-Menten fit on GEO1900 | For GEO1900 the extrapolated Vmax and Km values for pyruvate and AKG were […]

Substrate in series [2]: O=C(O)CCC(=O)C(=O)O
Kind of series: steady-state kinetics, GluDH-coupled discontinuous assay. The class given is biochemical, Geoglobus acetivorans. As to conditions: 5 mM L-Leu co-substrate, 50 mM phosphate pH 8.0, 100 mM NaCl, 60 μM PLP, 65°C. The source says: steady-state kinetics, GluDH-coupled discontinuous assay on GEO1900 | For GEO1900 the extrapolated Vmax and Km values for pyruvate and AKG were […]

Substrate in series [3]: CC(C)CC(=O)C(=O)O
Kind of series: purified protein. As to conditions: 10 mM L-glutamate, 0.1 M Tris-HCl pH 8, 0.1 mM PLP, 70°C.

Substrate in series [4]: CC(C)C(=O)C(=O)O
The experiment in a line: purified protein. As to conditions: 10 mM L-glutamate, 0.1 M Tris-HCl pH 8, 0.1 mM PLP, 70°C.

Substrate in series [5]: CC[C@H](C)C(=O)C(=O)O
Kind of series: purified protein. To be noted: 10 mM L-glutamate, 0.1 M Tris-HCl pH 8, 0.1 mM PLP, 70°C.

These results are taken from article PMC6353796, “Thermostable Branched-Chain Amino Acid Transaminases From the Archaea Geoglobus acetivorans and Archaeoglobus fulgidus: Biochemical and Structural Characterization” (Frontiers in Bioengineering and Biotechnology, 2019).

B1: GEO1900 (Geoglobus acetivorans) (protein)
chain: MSELLVYMNGEFVPESQAKVSVFDHGFLYGDGVFEGIRAYNGKVFKLYEHIDRLYDCARVIDLKIPLSKEEFAEAILETLRRNNLRDAYIRPIVTRGAGDLGLDPRKCPSPNVIIITKPWGKLYGDLYEKGLKAITVAIRRNAIDSLPPNIKSLNYLNNILAKIEANAKGGDEAIFLDHNGYISEGSGDNIFIVKNGTITTPPTLNNLKGITRQVVIELINELEIPFREANIGLFDLYSADEIFVTGTAAEIAPVTYIDGRTVGNGKPGKVTKMLMEKFRERTENEGVEIYR
notes: mainly homodimer in solution, hexamer in crystal; catalytic Lys152
One may read the Km as the substrate concentration at which the rate is half of its maximum. Regarding B1, the results for the Km in series [1] and in series [2] were 10600 ± 1900 µM and 1900 ± 600 µM, respectively.

B2: AF0933 (Archaeoglobus fulgidus DSM 4304) (protein)
chain: MLYVYMDGEFVPENEAKVSIFDHGFLYGDGVFEGIRAYNGRVFRLKEHIDRLYDSAKAIDLEIPITKEEFMEIILETLRKNNLRDAYIRPIVTRGIGDLGLDPRKCQNPSIIVITKPWGKLYGDLYEKGLTAITVAVRRNSFDALPPNIKSLNYLNNILAKIEANAKGGDEAIFLDRNGYVSEGSGDNIFVVKNGAITTPPTINNLRGITREAVIEIINRLGIPFKETNIGLYDLYTADEVFVTGTAAEIAPIVVIDGRKIGDGKPGEITRKLMEEFSKLTESEGVPIYE
As a reminder, the Vmax is the top rate of the reaction or transport when substrate is in excess. Usually kcat/Km stands for the turnover number divided by the Michaelis constant. B2: in “purified protein [3]”, the Km was determined as 250 µM, the Vmax came to 5.5 µmol/min/mg and the kcat/Km worked out at 13000 M⁻¹ s⁻¹. In the series “purified protein [4]”, the Km is 420 µM, the Vmax came out at 6.3 µmol/min/mg and the kcat/Km came to 8850 M⁻¹ s⁻¹. Also, in “purified protein [5]”, the Km is 130 µM, the Vmax stood at 3.9 µmol/min/mg and the kcat/Km was found to be 17700 M⁻¹ s⁻¹.
